From doi:10.1101/492876

What was measured:
[1] = target: elongation factor thermo-unstable (EF-Tu), hexahistidine-tagged (E. coli) (UniProt P0CE47); test: SEC
[2] = target: preformed oligomeric EF-Tu (^OligoEF-Tu) (E. coli) (UniProt P0CE47); test: ITC

Substance	stoichiometry N [1]	Kd [2]	dH [2]	stoichiometry N [2]
reduced form of Hsp33 (^RHsp33) (from UniProt P0A6Y5 1-292) (natural protein)	1	580 nM	-18.8 kcal/mol	2.37
elongation factor thermo-unstable (EF-Tu), hexahistidine-tagged (from UniProt P0CE47 1-394) (natural protein)	2			
